Test results: patent US20180162947A1 (UCB, published 2018)

biological target: T1, recombinant human CSF-1R (form not stated) (human, UniProt P07333 20-512, limits assumed); assay: BIAcore, humanisation stage, crude cell supernatant
T1 construct: for the ELISA no species is stated; also called recombinant CSF-1R; recombinant CSF-1R protein
T1 sequence (P07333 20-512 limits assumed): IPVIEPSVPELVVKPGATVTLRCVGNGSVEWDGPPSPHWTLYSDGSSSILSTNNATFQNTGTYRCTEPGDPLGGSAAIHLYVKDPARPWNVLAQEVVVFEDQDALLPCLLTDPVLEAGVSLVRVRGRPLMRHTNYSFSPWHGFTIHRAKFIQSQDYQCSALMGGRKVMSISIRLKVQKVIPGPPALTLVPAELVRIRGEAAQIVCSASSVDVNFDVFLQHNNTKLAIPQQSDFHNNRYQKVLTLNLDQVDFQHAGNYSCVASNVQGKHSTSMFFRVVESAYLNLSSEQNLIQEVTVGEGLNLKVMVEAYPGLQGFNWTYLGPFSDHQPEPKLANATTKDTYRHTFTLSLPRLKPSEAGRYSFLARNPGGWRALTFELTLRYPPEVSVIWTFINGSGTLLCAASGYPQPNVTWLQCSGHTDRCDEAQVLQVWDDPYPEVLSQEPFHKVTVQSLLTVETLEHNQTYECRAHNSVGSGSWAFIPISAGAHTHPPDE

Kd | koff | kon | Binder
6.5 pM | 5e-06 s⁻¹ | 768000 M⁻¹ s⁻¹ | 969gH2gL5 (antibody, human IgG4 S228P, kappa, name in Kabat numbering, V domains shown, Humanised IgG4 (S241P)/kappa; positions are Kabat) VH: EVTLKESGPALVKPTQTLTLTCTFSGFSLTTYGMGVGWIRQPPGKALEWLANIWWDDDKYYNPSLKNRLTISKDTSKNQVVLTMTNMDPVDTATYYCARIGPIKYPTAPYRYFDFWGQGTMVTVSS VL: DIQMTQSPSSLSASVGDRVTITCLASEDIYDNLAWYQQKPGKAPKLLIYYASSLQDGVPSRFSGSGSGTDFTLTISSLQPEDFATYFCLQDSEYPWTFGGGTKVEIKR
3.4 pM | 7.29e-06 s⁻¹ | 2.12e+06 M⁻¹ s⁻¹ | 969gH2gL3 (antibody, human IgG4 S228P, kappa, name in Kabat numbering, V domains shown, Humanised IgG4 (S241P)/kappa; positions are Kabat) VH: EVTLKESGPALVKPTQTLTLTCTFSGFSLTTYGMGVGWIRQPPGKALEWLANIWWDDDKYYNPSLKNRLTISKDTSKNQVVLTMTNMDPVDTATYYCARIGPIKYPTAPYRYFDFWGQGTMVTVSS VL: DIQMTQSPSSLSASVGDRVTITCLASEDIYDNLAWYQKKPGKAPKLLIYYASSLQDGVPSRFSGSGSGTDFTLTISSLQPEDFATYFCLQDSEYPWTFGGGTKVEIKR
4.3 pM | 5e-06 s⁻¹ | 1.17e+06 M⁻¹ s⁻¹ | 969gH1gL8 (antibody, human IgG4 S228P, kappa, name in Kabat numbering, V domains shown, Humanised IgG4 (S241P)/kappa; positions are Kabat) VH: EVTLKESGPALVKPTQTLTLTCTFSGFSLTTYGMGVGWIRQPPGKALEWLANIWWDDDKYYNPSLKNRLTISKDTSKNQAVLTMTNMDPVDTATYYCARIGPIKYPTAPYRYFDFWGQGTMVTVSS VL: DIQMTQSPSSLSASVGDRVTITCLASEDIYDNLAWYQQKPGKAPKLLIYYASSLQDGVPSRFSGSGSGTDFTLTISSLQPEDFATYYCLQDSEYPWTFGGGTKVEIKR
3.4 pM | 6.11e-06 s⁻¹ | 1.78e+06 M⁻¹ s⁻¹ | 969gH2gL2 (antibody, human IgG4 S228P, kappa, name in Kabat numbering, V domains shown, Humanised IgG4 (S241P)/kappa; positions are Kabat) VH: EVTLKESGPALVKPTQTLTLTCTFSGFSLTTYGMGVGWIRQPPGKALEWLANIWWDDDKYYNPSLKNRLTISKDTSKNQVVLTMTNMDPVDTATYYCARIGPIKYPTAPYRYFDFWGQGTMVTVSS VL: DIQMTQSPSSLSASVGDRVTITCLASEDIYDNLAWYQQKPGKAPKLLIYYASSLQDGVPSRFSGSGSGTDYTLTISSLQPEDFATYFCLQDSEYPWTFGGGTKVEIKR
4.4 pM | 6.23e-06 s⁻¹ | 1.4e+06 M⁻¹ s⁻¹ | 969gH2gL6 (antibody, human IgG4 S228P, kappa, name in Kabat numbering, V domains shown, Humanised IgG4 (S241P)/kappa; positions are Kabat; also called Ab969.g9) VH: EVTLKESGPALVKPTQTLTLTCTFSGFSLTTYGMGVGWIRQPPGKALEWLANIWWDDDKYYNPSLKNRLTISKDTSKNQVVLTMTNMDPVDTATYYCARIGPIKYPTAPYRYFDFWGQGTMVTVSS VL: DIQMTQSPSSLSASVGDRVTITCLASEDIYDNLAWYQKKPGKAPKLLIYYASSLQDGVPSRFSGSGSGTDFTLTISSLQPEDFATYYCLQDSEYPWTFGGGTKVEIKR

The remaining lines, values behind:

Binder | Kd | koff | kon
969gH1gL2 (antibody, human IgG4 S228P, kappa, name in Kabat numbering, V domains shown, Humanised IgG4 (S241P)/kappa; positions are Kabat) VH: EVTLKESGPALVKPTQTLTLTCTFSGFSLTTYGMGVGWIRQPPGKALEWLANIWWDDDKYYNPSLKNRLTISKDTSKNQAVLTMTNMDPVDTATYYCARIGPIKYPTAPYRYFDFWGQGTMVTVSS VL: DIQMTQSPSSLSASVGDRVTITCLASEDIYDNLAWYQQKPGKAPKLLIYYASSLQDGVPSRFSGSGSGTDYTLTISSLQPEDFATYFCLQDSEYPWTFGGGTKVEIKR | 3.4 pM | 5e-06 s⁻¹ | 1.46e+06 M⁻¹ s⁻¹
969gH1gL3 (antibody, human IgG4 S228P, kappa, name in Kabat numbering, V domains shown, Humanised IgG4 (S241P)/kappa; positions are Kabat) VH: EVTLKESGPALVKPTQTLTLTCTFSGFSLTTYGMGVGWIRQPPGKALEWLANIWWDDDKYYNPSLKNRLTISKDTSKNQAVLTMTNMDPVDTATYYCARIGPIKYPTAPYRYFDFWGQGTMVTVSS VL: DIQMTQSPSSLSASVGDRVTITCLASEDIYDNLAWYQKKPGKAPKLLIYYASSLQDGVPSRFSGSGSGTDFTLTISSLQPEDFATYFCLQDSEYPWTFGGGTKVEIKR | 2.8 pM | 5e-06 s⁻¹ | 1.8e+06 M⁻¹ s⁻¹
969gH1gL7 (antibody, human IgG4 S228P, kappa, name in Kabat numbering, V domains shown, Humanised IgG4 (S241P)/kappa; position is Kabat) VH: EVTLKESGPALVKPTQTLTLTCTFSGFSLTTYGMGVGWIRQPPGKALEWLANIWWDDDKYYNPSLKNRLTISKDTSKNQAVLTMTNMDPVDTATYYCARIGPIKYPTAPYRYFDFWGQGTMVTVSS VL: DIQMTQSPSSLSASVGDRVTITCLASEDIYDNLAWYQQKPGKAPKLLIYYASSLQDGVPSRFSGSGSGTDYTLTISSLQPEDFATYYCLQDSEYPWTFGGGTKVEIKR | 3.3 pM | 5e-06 s⁻¹ | 1.5e+06 M⁻¹ s⁻¹
969gH1gL6 (antibody, human IgG4 S228P, kappa, name in Kabat numbering, V domains shown, Humanised IgG4 (S241P)/kappa; positions are Kabat) VH: EVTLKESGPALVKPTQTLTLTCTFSGFSLTTYGMGVGWIRQPPGKALEWLANIWWDDDKYYNPSLKNRLTISKDTSKNQAVLTMTNMDPVDTATYYCARIGPIKYPTAPYRYFDFWGQGTMVTVSS VL: DIQMTQSPSSLSASVGDRVTITCLASEDIYDNLAWYQKKPGKAPKLLIYYASSLQDGVPSRFSGSGSGTDFTLTISSLQPEDFATYYCLQDSEYPWTFGGGTKVEIKR | 4.4 pM | 5e-06 s⁻¹ | 1.15e+06 M⁻¹ s⁻¹
969gH1gL5 (antibody, human IgG4 S228P, kappa, name in Kabat numbering, V domains shown, Humanised IgG4 (S241P)/kappa; positions are Kabat) VH: EVTLKESGPALVKPTQTLTLTCTFSGFSLTTYGMGVGWIRQPPGKALEWLANIWWDDDKYYNPSLKNRLTISKDTSKNQAVLTMTNMDPVDTATYYCARIGPIKYPTAPYRYFDFWGQGTMVTVSS VL: DIQMTQSPSSLSASVGDRVTITCLASEDIYDNLAWYQQKPGKAPKLLIYYASSLQDGVPSRFSGSGSGTDFTLTISSLQPEDFATYFCLQDSEYPWTFGGGTKVEIKR | 6.6 pM | 6.11e-06 s⁻¹ | 926000 M⁻¹ s⁻¹
969gH1gL4 (antibody, human IgG4 S228P, kappa, name in Kabat numbering, V domains shown, Humanised IgG4 (S241P)/kappa; positions are Kabat) VH: EVTLKESGPALVKPTQTLTLTCTFSGFSLTTYGMGVGWIRQPPGKALEWLANIWWDDDKYYNPSLKNRLTISKDTSKNQAVLTMTNMDPVDTATYYCARIGPIKYPTAPYRYFDFWGQGTMVTVSS VL: DIQMTQSPSSLSASVGDRVTITCLASEDIYDNLAWYQKKPGKAPKLLIYYASSLQDGVPSRFSGSGSGTDYTLTISSLQPEDFATYYCLQDSEYPWTFGGGTKVEIKR | 2.1 pM | 5e-06 s⁻¹ | 2.39e+06 M⁻¹ s⁻¹
